In the supplement of paper PMC5998384:

Key:
HeLa Kyoto [1] = assay: solubility change mitosis vs G1/S (difference of NP-40 vs SDS log2 ratios) (log2 ratio difference); higher = more soluble in mitosis
HeLa Kyoto [2] = assay: solubility in G1/S (NP-40 vs SDS abundance) (log2 ratio); higher = more soluble; conditions: cell cycle stage: G1/S
HeLa Kyoto [3] = assay: melting temperature (median over replicates), in situ; higher = more thermally stable
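Throughout, for melting temperature (median over replicates), in situ: HeLa Kyoto cells synchronized by double thymidine or nocodazole block, proteins quantified by TMT10plex mass spectrometry, three independent biological replicates.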
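Throughout, for solubility change mitosis vs G1/S (difference of NP-40 vs SDS log2 ratios): synchronized HeLa Kyoto cells (double thymidine block for G1/S, nocodazole release for mitosis), protein amounts in NP-40 versus SDS lysates quantified by mass spectrometry, three biological replicates.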
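Throughout, for solubility in G1/S (NP-40 vs SDS abundance): HeLa Kyoto cells arrested at G1/S by double thymidine block, proteins quantified by TMT10plex mass spectrometry in mild NP-40 versus SDS extracts, three biological replicates.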

Sequence	solubility change mitosis (log2) (HeLa Kyoto [1])	solubility in G1/S (log2) (HeLa Kyoto [2])	melting temperature (HeLa Kyoto [3]; cell cycle stage: G1/S) [°C]	melting temperature (HeLa Kyoto [3]; cell cycle stage: mitosis) [°C]
MALTVDVAGPAPWGFRITGGRDFHTPIMVTKVAERGKAKDADLRPGDIIVAINGESAEGMLHAEAQSKIRQSPSPLRLQLDRSQATSPGQTNGDSSLEVLATRFQGSVRTYTESQSSLRSSYSSPTSLSPRAGSPFSPPPSSSSLTGEAAISRSFQSLACSPGLPAADRLSYSGRPGSRQAGLGRAGDSAVLVLPPSPGPRSSRPSMDSEGGSLLLDEDSEVFKMLQENREGRAAPRQSSSFRLLQEALEAEERGGTPAFLPSSLSPQSSLPASRALATPPKLHTCEKCSTSIANQAVRIQEGRYRHPGCYTCADCGLNLKMRGHFWVGDELYCEKHARQRYSAPATLSSRA [PDLIM2]	-0.043	0.17	55.6	53.8
MALVRGAEPAAGPSRWLPTHVQVTVLRARGLRGKSSGAGSTSDAYTVIQVGREKYSTSVVEKTHGCPEWREECSFELPPGALDGLLRAQEADAGPAPWAASSAAACELVLTTMHRSLIGVDKFLGQATVALDEVFGAGRAQHTQWYKLHSKPGKKEKERGEIEVTIQFTRNNLSASMFDLSMKDKPRSPFSKIRDKMKGKKKYDLESASAILPSSAIEDPDLGSLGKMGKAKGFFLRNKLRKSSLTQSNTSLGSDSTLSSASGSLAYQGPGAELLTRSPSRSSWLSTEGGRDSAQSPKLFTHKRTYSDEANQMRVAPPRALLDLQGHLDAASRSSLCVNGSHIYNEEPQGPVRHRSSISGSLPSSGSLQAVSSRFSEEGPRSTDDTWPRGSRSNSSSEAVLGQEELSAQAKVLAPGASHPGEEEGARLPEGKPVQVATPIVASSEAVAEKEGARKEERKPRMGLFHHHHQGLSRSELGRRSSLGEKGGPILGASPHHSSSGEEKAKSSWFGLREAKDPTQKPSPHPVKPLSAAPVEGSPDRKQSRSSLSIALSSGLEKLKTVTSGSIQPVTQAPQAGQMVDTKRLKDSAVLDQSAKYYHLTHDELISLLLQRERELSQRDEHVQELESYIDRLLVRIMETSPTLLQIPPGPPK [RAB11FIP5]	-0.217	0.0739	50.1	49.3
MAPLRFSANLSWLFPELSGLPARVRAAGSSGFEAVEVAWPYAETPEALARAAREAGLRLVLINTPPGDQEKGEMGLGAVPGRQAAFREGLEQAVRYAKALGCPRIHLMAGRVPQGADRIAVKAEMEAVFLENLRHAAGVLAQEDLVGLLEPINTRITDPQYFLDTPQQAAAILQKVGRPNLQLQMDIFHWQIMDGNLTGNIREFLPIVGHVQVAQVPGRGEPSSPGELNFPYLFQLLEDEGYKGFVGCEYQPRGDTVEGLSWLRSYWDRRGHPEAGQ [HYI]	0.234	0.344	55.2	54.7
MAPRGRKRKAEAAVVAVAEKREKLANGGEGMEEATVVIEHCTSURVYGRNAAALSQALRLEAPELPVKVNPTKPRRGSFEVTLLRPDGSSAELWTGIKKGPPRKLKFPEPQEVVEELKKYLS [SELH]	0.17	-0.0665		52.2
MAQKRPACTLKPECVQQLLVCSQEAKKSAYCPYSHFPVGAALLTQEGRIFKGCNIENACYPLGICAERTAIQKAVSEGYKDFRAIAIASDMQDDFISPCGACRQVMREFGTNWPVYMTKPDGTYIVMTVQELLPSSFGPEDLQKTQ [CDA]	-0.0534	0.37	54.4	54
MASREEVLALQAEVAQREEELNSLKQKLASALLAEQEPQPERLVPVSPLPPKAALSRDEILRYSRQLVLPELGVHGQLRLGTACVLIVGCGGLGCPLAQYLAAAGVGRLGLVDYDVVEMSNLARQVLHGEALAGQAKAFSAAASLRRLNSAVECVPYTQALTPATALDLVRRYDVVADCSDNVPTRYLVNDACVLAGRPLVSASALRFEGQITVYHYDGGPCYRCIFPQPPPAETVTNCADGGVLGVVTGVLGCLQALEVLKIAAGLGPSYSGSLLLFDALRGHFRSIRLRSRRLDCAACGERPTVTDLLDYEAFCGSSATDKCRSLQLLSPEERVSVTDYKRLLDSGAFHLLLDVRPQVEVDICRLPHALHIPLKHLERRDAESLKLLKEAIWEEKQGTQEGAAVPIYVICKLGNDSQKAVKILQSLSAAQELDPLTVRDVVGGLMAWAAKIDGTFPQY [MOCS3]	-0.0562	0.156	51.3	49.5
